Reference: paper PMC10974264, “The Evolution and Application of a Novel DNA Aptamer Targeting Bone Morphogenetic Protein 2 for Bone Regeneration”

T1: rhBMP-2 (His-tagged, refolded, E. coli-expressed) (human, UniProt P12643 283-396)
T1 sequence: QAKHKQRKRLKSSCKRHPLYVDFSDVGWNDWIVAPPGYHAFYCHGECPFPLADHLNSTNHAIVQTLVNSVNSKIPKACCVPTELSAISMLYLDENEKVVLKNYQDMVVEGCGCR


What was measured:
[1] = biological target: T1, rhBMP-2 (His-tagged, refolded, E. …); test: ELONA; immobilized rhBMP-2, 100 ng/well; EMSA: 20 mM HEPES pH 7.4, 150 mM NaCl, 2 mM MgCl2, 2 mM CaCl2, 2 mM KCl, 37 C 1 h, 12% native PAGE at 4 C; ELONA: His-rhBMP-2 on HisSorb plate, biotinylated DNA 1 h at 37 C, PBST washes; conditions: protein: recombinant, tags: His tag (pET-15b NdeI/BamHI), chain copies: 2, label: biotin (ELONA), none in EMSA
[2] = biological target: T1, rhBMP-2 (His-tagged, refolded, E. …); test: ELISA-like; fiber of 500 nM BA1 and 10% type I collagen (0.3 mg/mL); EMSA: 20 mM HEPES pH 7.4, 150 mM NaCl, 2 mM MgCl2, 2 mM CaCl2, 2 mM KCl, 37 C 1 h, 12% native PAGE at 4 C; ELONA: His-rhBMP-2 on HisSorb plate, biotinylated DNA 1 h at 37 C, PBST washes; conditions: protein: recombinant; tags: His tag (pET-15b NdeI/BamHI); chain copies: 2; label: biotin

Binder	Kd [1] [nM]	further results
BA1 (ssDNA) DNA: CGTACGGTCGACGCTAGCAAAACAAAAAAAAATAAAAAAAAAAAGACTAAAGACACGTGGAGCTCGGATCC		Kd ([1]; single strand, predicted hairpin-like): 6.95 ± 0.53 nM
BA2 (ssDNA) DNA: CGTACGGTCGACGCTAGCAAAAAAAAATCTAAAAACAAGAAAAGAAAAACAAACACGTGGAGCTCGGATCC	20.3 ± 4.73	
BNA2 (ssDNA) DNA: CGTACGGTCGACGCTAGCATCAGCTCTCTGGGCTGAGTGGGTGGTGTGGCACGCACGTGGAGCTCGGATCC	22.3 ± 1.97	
BA1 in collagen fiber (ssDNA) DNA: CGTACGGTCGACGCTAGCAAAACAAAAAAAAATAAAAAAAAAAAGACTAAAGACACGTGGAGCTCGGATCC		Kd [2]: ~3.5 nM
